Results on 3 molecules are retold here after patent publication US20190225669A1 (ACCELERON PHARMA, published 2019).

One assay deals with T1, BMP9 (UniProt Q9UK05 320-429).
T1 construct: also called GDF2
T1 sequence (looked up): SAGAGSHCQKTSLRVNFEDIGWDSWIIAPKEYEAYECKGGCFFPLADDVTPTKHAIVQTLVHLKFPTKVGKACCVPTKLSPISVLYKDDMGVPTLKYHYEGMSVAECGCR
Description: Biacore SPR.

The next assay deals with T2, BMP10 (UniProt O95393 317-424).
T2 sequence (looked up): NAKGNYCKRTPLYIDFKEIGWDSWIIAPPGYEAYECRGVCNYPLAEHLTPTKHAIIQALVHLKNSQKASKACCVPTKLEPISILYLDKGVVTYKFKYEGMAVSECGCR
Description: Biacore SPR.

Assay [1] has as its target T3, TGFβ1 (human, UniProt P01137 279-390). Description: cell-based or functional assay.
For assay [2], the target named is T4, TGFβ2 (human, UniProt P61812 303-414).
T4 sequence (looked up): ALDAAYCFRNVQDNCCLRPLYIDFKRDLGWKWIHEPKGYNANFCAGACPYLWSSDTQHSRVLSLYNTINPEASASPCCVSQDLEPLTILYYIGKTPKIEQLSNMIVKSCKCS
Description: cell-based or functional assay.

The target of assay [3] is T5, TGFβ3 (human, UniProt P10600 301-412).
T5 sequence (looked up): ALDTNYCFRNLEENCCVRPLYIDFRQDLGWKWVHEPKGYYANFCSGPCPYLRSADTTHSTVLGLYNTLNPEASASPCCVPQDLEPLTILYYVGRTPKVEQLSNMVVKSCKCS
Description: cell-based or functional assay.

The target in assay [4] is T3, TGFβ1. Description: Biacore SPR; * low signal. As to the method:
(§1) The heteromeric or homomeric protein complexes were independently captured onto the system using an anti-Fc antibody. Ligands were injected and allowed to flow over the captured receptor protein.
(SPR reads the build-up and loss of mass on a sensor chip optically.)

Assay [5] concerns the target T4, TGFβ2. Description: Biacore SPR; * low signal. As to the method: as §1
The target in assay [6] is T5, TGFβ3. Description: Biacore SPR; * low signal. As to the method: as §1
Assay [7] concerns the target T4, TGFβ2. Description: Biacore SPR.
Assay [8] addresses T6, BMP6 (UniProt P22004 382-513, limits assumed).
T6 sequence (looked up): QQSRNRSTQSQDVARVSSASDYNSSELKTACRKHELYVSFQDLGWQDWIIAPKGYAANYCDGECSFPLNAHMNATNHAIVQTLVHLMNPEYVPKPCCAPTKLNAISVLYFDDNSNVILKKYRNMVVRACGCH
Description: Biacore SPR. As to the method:
(§2) Ligands were injected and allowed to flow over the captured receptor protein.

Assay [9] deals with T7, BMP5 (UniProt P22003 317-454, limits assumed).
T7 sequence (looked up): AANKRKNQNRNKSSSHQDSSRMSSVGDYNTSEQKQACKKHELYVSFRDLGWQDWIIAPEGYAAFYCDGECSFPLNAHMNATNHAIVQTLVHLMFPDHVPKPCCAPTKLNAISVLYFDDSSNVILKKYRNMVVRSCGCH
Description: Biacore SPR. As for the experimental part:
as §2

Assay [10] has as its target T6, BMP6. Description: Biacore SPR. As for the experimental part: as §2
The source holds these as a separate data set.

The target of assay [11] is T8, BMP7 (UniProt P18075 293-431).
T8 sequence (looked up): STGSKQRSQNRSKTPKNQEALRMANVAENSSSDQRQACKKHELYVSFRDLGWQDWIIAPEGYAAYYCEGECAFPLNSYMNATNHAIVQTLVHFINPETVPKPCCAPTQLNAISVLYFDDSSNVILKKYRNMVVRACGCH
Description: Biacore SPR. As for the experimental part:
as §2

Assay [12] deals with T7, BMP5. Description: Biacore SPR. As for the experimental part:
as §2
The source holds these as a separate data set.

In assay [13] the target is T6, BMP6. Description: Biacore SPR. As for the experimental part: as §2
The source holds these as a separate data set.

Assay [14] deals with T7, BMP5. Description: Biacore SPR. As to the method:
as §2
This is another data set of the same source.

For assay [15], the target named is T8, BMP7. Description: Biacore SPR. As to the method:
as §2
This is another data set of the same source.

The target of assay [16] is T9, GDF5 (UniProt P43026 382-501).
T9 construct: also called BMP14
T9 sequence (looked up): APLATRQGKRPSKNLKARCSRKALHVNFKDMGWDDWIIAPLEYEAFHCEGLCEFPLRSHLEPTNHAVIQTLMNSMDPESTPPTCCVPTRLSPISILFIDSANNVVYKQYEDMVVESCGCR
Description: Biacore SPR. As for the experimental part:
as §2

A further assay concerns the target T10, GDF6 (UniProt Q6KF10 336-455, limits assumed).
T10 construct: also called BMP13
T10 sequence (looked up): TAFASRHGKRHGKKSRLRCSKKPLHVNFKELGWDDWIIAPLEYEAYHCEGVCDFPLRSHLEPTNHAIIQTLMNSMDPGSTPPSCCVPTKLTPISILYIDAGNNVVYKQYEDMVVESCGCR
Description: Biacore SPR. As to the method: as §2

Assay [17] concerns the target T6, BMP6. Description: Biacore SPR. As for the experimental part: as §2
This is another data set of the same source.

The target of assay [18] is T9, GDF5. Description: Biacore SPR; kinetics indeterminate (transient). As for the experimental part:
as §2

Another assay addresses T11, GDF7 (UniProt Q7Z4P5 322-450, limits assumed).
T11 construct: also called BMP12
T11 sequence (looked up): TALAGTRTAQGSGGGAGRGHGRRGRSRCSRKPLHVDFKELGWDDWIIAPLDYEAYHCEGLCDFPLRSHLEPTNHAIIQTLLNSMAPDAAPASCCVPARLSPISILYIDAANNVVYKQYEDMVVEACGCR
Description: Biacore SPR; kinetics indeterminate (transient). As for the experimental part: as §2

Read-outs that look alike come from different tables or passages of the source.

T3 sequence (P01137 279-390 limits assumed): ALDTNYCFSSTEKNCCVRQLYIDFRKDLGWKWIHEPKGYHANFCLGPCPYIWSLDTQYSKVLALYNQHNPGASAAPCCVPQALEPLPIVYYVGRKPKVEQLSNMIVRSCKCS

B1: TGFβRIISHORT-Fc:ALK5-Fc heterodimer (Fc fusion)
chain 1: TIPPHVQKSVNNDMIVTDNNGAVKFPQLCKFCDVRFSTCDNQKSCMSNCSITSICEKPQEVCVAVWRKNDENITLETVCHDPKLPYHDFILEDAASPKCIMKEKKKPGETFFMCSCSSDECNDNIIFSEEYNTSNPDTGGGTHTCPPCPAPELLGGPSVFLFPPKPKDTLMISRTPEVTCVVVDVSHEDPEVKFNWYVDGVEVHNAKTKPREEQYNSTYRVVSVLTVLHQDWLNGKEYKCKVSNKALPAPIEKTISKAKGQPREPQVYTLPPSRKEMTKNQVSLTCLVKGFYPSDIAVEWESNGQPENNYKTTPPVLKSDGSFFLYSKLTVDKSRWQQGNVFSCSVMHEALHNHYTQKSLSLSPGK
chain 2: ALLPGATALQCFCHLCTKDNFTCVTDGLCFVSVTETTDKVIHNSMCIAEIDLIPRDRPFVCAPSSKTGSVTTTYCCNQDHCNKIELPTTVKSSPGLGPVETGGGTHTCPPCPAPELLGGPSVFLFPPKPKDTLMISRTPEVTCVVVDVSHEDPEVKFNWYVDGVEVHNAKTKPREEQYNSTYRVVSVLTVLHQDWLNGKEYKCKVSNKALPAPIEKTISKAKGQPREPQVYTLPPSREEMTKNQVSLTCLVKGFYPSDIAVEWESNGQPENNYDTTPPVLDSDGSFFLYSDLTVDKSRWQQGNVFSCSVMHEALHNHYTQKSLSLSPG
notes: also called TGFβRIISHORT:ALK5-Fc Heterodimer; TGFβRII-Fc:ALK5-Fc heterodimer (short isoform)
For the molecule B1, the binding result in the assay with BMP9 and with BMP10 was “no binding” each time. The “IC50 (pM), CAGA12-luciferase reporter gene assay in A549 cells, TGFβ1 at 640 pg/mL” value in the assay with TGFβ1 [1] was less than 350 pM. Besides, the “IC50 (pM), CAGA12-luciferase reporter gene assay in A549 cells, TGFβ2 at 480 pg/mL” value with TGFβ2 [2] was approximately 200 pM. The “IC50 (pM), CAGA12-luciferase reporter gene assay in A549 cells, TGFβ3 at 270 pg/mL” value with TGFβ3 [3] was less than 90 pM. The values for the Kd in the assay with TGFβ1 [4], with TGFβ2 [5] and with TGFβ3 [6] were 12 pM, 0.4 pM and 38 pM, respectively. In addition, the off-rate (koff) (in general, the rate constant with which the complex falls apart) with TGFβ1 [4] was determined as 0.0017 s⁻¹; with TGFβ2 [5], 2.9e-06 s⁻¹; in the assay with TGFβ3 [6] it was 0.001 s⁻¹. The values for the kon with TGFβ1 [4], with TGFβ2 [5] and with TGFβ3 [6] were 1.4e+08 M⁻¹ s⁻¹, 6.6e+06 M⁻¹ s⁻¹ and 2.7e+07 M⁻¹ s⁻¹, respectively.

B2: TGFβRIILONG-Fc:ALK5-Fc heterodimer (Fc fusion)
chain 1: TIPPHVQKSDVEMEAQKDEIICPSCNRTAHPLRHINNDMIVTDNNGAVKFPQLCKFCDVRFSTCDNQKSCMSNCSITSICEKPQEVCVAVWRKNDENITLETVCHDPKLPYHDFILEDAASPKCIMKEKKKPGETFFMCSCSSDECNDNIIFSEEYNTSNPDTGGGTHTCPPCPAPELLGGPSVFLFPPKPKDTLMISRTPEVTCVVVDVSHEDPEVKFNWYVDGVEVHNAKTKPREEQYNSTYRVVSVLTVLHQDWLNGKEYKCKVSNKALPAPIEKTISKAKGQPREPQVYTLPPSRKEMTKNQVSLTCLVKGFYPSDIAVEWESNGQPENNYKTTPPVLKSDGSFFLYSKLTVDKSRWQQGNVFSCSVMHEALHNHYTQKSLSLSPGK
chain 2: B1 chain 2
notes: also called TGFβRII-Fc:ALK5-Fc heterodimer (long isoform)
Regarding B2, the binding result with BMP9 is “no binding”. Further, the binding result in the assay with BMP10 is on record as “no binding”. In the assay with TGFβ2 [7], the “affinity ratio against TGFβRII-Fc homodimer” value is approximately 100000 fold and the “off-rate ratio against TGFβRII-Fc homodimer” value was approximately 10000 fold. Also, the “IC50 (pM), CAGA12-luciferase reporter gene assay in A549 cells, TGFβ1 at 640 pg/mL” value in the assay with TGFβ1 [1] came to 204 pM. The “IC50 (pM), CAGA12-luciferase reporter gene assay in A549 cells, TGFβ2 at 480 pg/mL” value with TGFβ2 [2] came to 154 pM. Further, in the assay with TGFβ3 [3], the “IC50 (pM), CAGA12-luciferase reporter gene assay in A549 cells, TGFβ3 at 270 pg/mL” value stood at 35 pM. Moreover, in the assay with TGFβ1 [4], the dissociation constant (Kd) – broadly, the free concentration of one partner at which half of the binding sites on the other are occupied at equilibrium, for simple one-to-one binding – worked out at 14 pM; the off-rate (koff) was found to be 0.00092 s⁻¹; the association rate constant (kon) (usually a measure of how fast the partners come together) amounted to 6.6e+07 M⁻¹ s⁻¹. Further, in the assay with TGFβ2 [5], the dissociation constant Kd turned out to be 0.07 pM, the off-rate constant (koff) is 2.8e-07 s⁻¹ and the kon was found to be 4.2e+06 M⁻¹ s⁻¹. In the assay with TGFβ3 [6], this molecule registered a Kd of 38 pM, a koff of 0.001 s⁻¹ and an on-rate constant (kon) of 2.7e+07 M⁻¹ s⁻¹.

B3: ActRIIB-Fc homodimer (Fc fusion, UniProt Q13705 19-137, looked up, not shown: a dimerising Fc or GST)
chain: SGRGEAETRECIYYNANWELERTNQSGLERCEGEQDKRLHCYASWRNSSGTIELVKKGCWLDDFNCYDRQECVATEENPQVYFCCCEGNFCNERFTHLPEAGGPEVTYEPPPTAPTLLT
notes: extracellular domain; also called ActRIIB homodimer
B3: the Kd turned out to be 190 pM with BMP6 [8]; 2900 pM with BMP5 [9]; 190 pM with BMP6 [10]; 1600 pM in the assay with BMP7 [11]; 2900 pM with BMP5 [12]; 160 pM in the assay with BMP6 [13]. Moreover, the Kd was 9700 pM with BMP5 [14]; 1600 pM with BMP7 [15]; 1100 pM with GDF5 [16]; 39000 pM with GDF6; 1100 pM in the assay with BMP6 [17]; more than 9600 pM with GDF5 [18]. For the same molecule, the Kd with GDF7 is more than 12000 pM. Also, the off-rate constant (koff) in the assay with BMP6 [8] was 0.0068 s⁻¹; with BMP5 [9], 0.075 s⁻¹; in the assay with BMP6 [10], 0.0068 s⁻¹; with BMP7 [11] it was 0.014 s⁻¹; with BMP5 [12] it was 0.075 s⁻¹; in the assay with BMP6 [13] it was 0.0039 s⁻¹. Also, the off-rate constant (koff) in the assay with BMP5 [14] was found to be 0.037 s⁻¹; with BMP7 [15] it was 0.014 s⁻¹; with GDF5 [16], 0.0014 s⁻¹; with GDF6 it was 0.0057 s⁻¹; in the assay with BMP6 [17], 0.007 s⁻¹. Moreover, the kon came to 3.2e+07 M⁻¹ s⁻¹ in the assay with BMP6 [8]; 2.6e+07 M⁻¹ s⁻¹ with BMP5 [9]; 3.5e+07 M⁻¹ s⁻¹ in the assay with BMP6 [10]; 8.8e+06 M⁻¹ s⁻¹ with BMP7 [11]; 2.6e+07 M⁻¹ s⁻¹ with BMP5 [12]; 2.4e+07 M⁻¹ s⁻¹ with BMP6 [13]. For the same molecule, the kon with BMP5 [14] worked out at 3.8e+06 M⁻¹ s⁻¹; with BMP7 [15], 8.8e+06 M⁻¹ s⁻¹; with GDF5 [16], 1.2e+06 M⁻¹ s⁻¹; with GDF6 it was 150000 M⁻¹ s⁻¹; with BMP6 [17], 6.4e+06 M⁻¹ s⁻¹.
